Percent of microtubules with rings data for 2 substances are collected here from article PMC4826039.

A value given as a limit tells only on which side of the number the result lay.

The target of this assay is bovine brain tubulin (alpha-beta heterodimer), polymerized into taxol-stabilized microtubules (bovine) (UniProt Q6B856). In words: negative stain electron microscopy.

“KLP10A MD K350A (from UniProt Q960Z0 279-615) (domain or fragment)”: the percent of microtubules with rings was below 10%. Substance “KLP10A MD K399A (from UniProt Q960Z0 279-615) (domain or fragment)” had a percent of microtubules with rings below 10%.
